These results are taken from PMC8245648, “The R2R3-type MYB transcription factor MdMYB90-like is responsible for the enhanced skin color of an apple bud sport mutant”.

Data set [1] has as its target T1, MdMYB90-like (Malus domestica (Fuji apple / M_Fuji …, UniProt A0A498J9W0 1-206)).
T1 sequence: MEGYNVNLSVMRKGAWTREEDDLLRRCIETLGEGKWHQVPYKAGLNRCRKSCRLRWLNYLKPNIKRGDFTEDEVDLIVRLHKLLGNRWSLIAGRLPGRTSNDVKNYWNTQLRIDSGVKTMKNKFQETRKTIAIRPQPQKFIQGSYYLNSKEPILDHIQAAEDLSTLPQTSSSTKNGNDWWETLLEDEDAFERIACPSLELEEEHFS
The data set is described as follows: competition; unlabeled mutant did not reduce binding to N1; EMSA, Beyotime Chemiluminescent EMSA Kit, 1x kit binding buffer, 10 uL total; salt, pH and temperature not stated. The settings on record: protein: recombinant; tags: MBP (pMAL-c5X fusion); blunt.

Data set [2] addresses T1, MdMYB90-like. The data set is described as follows: competition; unlabeled mutant did not reduce binding to N5; EMSA, Beyotime Chemiluminescent EMSA Kit, 1x kit binding buffer, 10 uL total; salt, pH and temperature not stated. The conditions noted are these: protein: recombinant; tags: MBP (pMAL-c5X fusion); blunt. (A gel shift assay detects complexes by their altered migration in electrophoresis.)

Data set [3] concerns the target T1, MdMYB90-like. The data set is described as follows: competition; unlabeled mutant did not reduce binding to N7; EMSA, Beyotime Chemiluminescent EMSA Kit, 1x kit binding buffer, 10 uL total; salt, pH and temperature not stated. The settings on record: protein: recombinant; tags: MBP (pMAL-c5X fusion); blunt.
In data set [4] the target is T1, MdMYB90-like. The data set is described as follows: competition; unlabeled mutant did not reduce binding to N3; EMSA, Beyotime Chemiluminescent EMSA Kit, 1x kit binding buffer, 10 uL total; salt, pH and temperature not stated. The conditions noted are these: protein: recombinant; tags: MBP (pMAL-c5X fusion); blunt.
In data set [5] the target is T1, MdMYB90-like. The data set is described as follows: EMSA; EMSA, Beyotime Chemiluminescent EMSA Kit, 1x kit binding buffer, 10 uL total; salt, pH and temperature not stated. The settings on record: protein: recombinant; tags: MBP (pMAL-c5X fusion); label: biotin; blunt.

B1: CHSm probe (dsDNA)
DNA 1: GACTAATTTTGGTAACTCCCAAAGT
DNA 2: ACTTTGGGAGTTACCAAAATTAGTC
On to B1, for which the binding result in data set [1] is “no binding”.

B2: BHLH3m probe (dsDNA)
DNA 1: CCTGCTCACTGGTAAATCAAACCCA
DNA 2: TGGGTTTGATTTACCAGTGAGCAGG
Take B2: in data set [2], the binding result was “no binding”.

B3: MYB1m probe (dsDNA)
DNA 1: CGGACCACTTGGTAAAACAAATAAG
DNA 2: CTTATTTGTTTTACCAAGTGGTCCG
In the case of B3, the binding result in data set [3] is “no binding”.

B4: UFGTm probe (dsDNA)
DNA 1: TGGTACAAATGGTAACAATAAAATA
DNA 2: TATTTTATTGTTACCATTTGTACCA
As to B4, the binding result in data set [4] is “no binding”.

B5: CHS probe (dsDNA)
DNA 1: GACTAATTTCAACTGCTCCCAAAGT
DNA 2: ACTTTGGGAGCAGTTGAAATTAGTC
In the case of B5, the binding result in data set [5] was “binds”.

B6: MYB1 probe (dsDNA)
DNA 1: CGGACCACTCAACGGAACAAATAAG
DNA 2: CTTATTTGTTCCGTTGAGTGGTCCG
Turning to B6, the binding result in data set [5] is “binds”.

B7: UFGT probe (dsDNA)
DNA 1: TGGTACAAACAACTGCAATAAAATA
DNA 2: TATTTTATTGCAGTTGTTTGTACCA
Regarding B7, in data set [5], the binding result is reported as “binds”.

B8: BHLH3 probe (dsDNA)
DNA 1: CCTGCTCACTAACCAATCAAACCCA
DNA 2: TGGGTTTGATTGGTTAGTGAGCAGG
Take B8: the binding result in data set [5] is reported as “binds”.
